In article doi:10.1101/2021.04.24.441256:

Molecular target: the engineered RGA5_HMAs
Experiment: SPR

## 6xHis-tagged AVR-PikD (from UniProt C4B8B8 22-113) (natural protein)
  Kd: 0.5 to 1.6 nM
